Here are results for 16 sequences from the nanobody polyreactivity screen of Harvey et al. (2022).

This data set in a line: yeast display, Sf9 membrane polyspecificity reagent, FACS + sequencing; frameworks hold sequencing errors. In short, it runs like this: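 A synthetic nanobody library was expressed on Saccharomyces cerevisiae BJ5465 by galactose induction for 36–48 hours. The library was stained for 1 hour at 4 °C with 10% biotinylated, detergent-solubilized Sf9 membrane reagent and enriched with streptavidin microbeads before FACS. Low and high (top ~1%) gates were set on anti-HA fluorescence for expression and streptavidin fluorescence for reagent binding, and each polyreactivity label reflects the gate of origin.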
Take “QVQLVESGGGLVQAGGSLRLSCAASGGTSAVYAMGWYRQAPGKERELVAAISSDGSTNYADSVKGRFTISRDNAKNTVYLQMNSLKPEDTAVYYCAVDFSTYEWSGHITRASGSYDYWGQGTQVTVSS”: the “polyreactivity (PSR sort gate)” value is “low polyreactivity”.

Consider “QVQLVESGGGLVQAGGSLRLSCAASGHIFFYYTMGWYRQAPGKERELVAGITIGGSTNYADSVKGRFTISRDNAKNTVYLKMNSLKPEDTAVYYCNVVKYVYIYSYWEYYYWGQGTQVTVSS”, for which the “polyreactivity (PSR sort gate)” value was “low polyreactivity”.

In the case of “QVQLVESGGGLVQAGGSLRLSCAASGHIFLHNAMGWYRQAPGKERELVAGITYSDTSTYADSVKGRFTISRDNAKNTVYLQMNSLKPEDTAVYYCEYYYWGQGTQVTVSS”, the “polyreactivity (PSR sort gate)” value is listed as “low polyreactivity”.

As for “QVQLVESGGGLVQAGGSLRLSCAASGHTFSISAMGWYRQAPGKERELVAAISLSGGSTDYADSVKGRFTISRDNAKNTVYLQMNSLKPEDTAVYYCAADVFTARRSYDYGGQGTQVTVSS”, the “polyreactivity (PSR sort gate)” value was “low polyreactivity”.

Regarding “QVQLVESGGGLVQAGGSLRLSCAASGIFLGYAMGWYRQAPGKERELVAAITSGDSTYYADSVKGRLTISRDNAKNTVYLQMNSLKPEDTAVYYCAKTRYSWPRVWYNYWGQGTQVTVSS”, the “polyreactivity (PSR sort gate)” value is listed as “low polyreactivity”.

As to “QVQLVESGGGLVQAGGSLRLSCAASGIFRQNAMGWYRQAPGKERELVAGISQSGGSTYYADSVKGRFTISRDNAKNTVYLQMNSLKPEDTAVYYCAGVSIWGYDYWGQGTQVTVSS”, the “polyreactivity (PSR sort gate)” value is recorded as “low polyreactivity”.

“QVQLVESGGGLVQAGGSLRLSCAASGIFRRYAMGWYRQAPGKERELVAAISYSGGSTEYADSVKGRFTISRDNAKNTVYLQMNSLKPEDTAVYYCAAVNRPRPRRSDYWGQGTQVTVSS”: the “polyreactivity (PSR sort gate)” value is listed as “high polyreactivity”.

Regarding “QVQLVESGGGLVQAGGSLRLSCAASGIFTNNAMGWYRQAPGKERELVAAITIRGGSTYYADSVKGRFTISRDNAKNTVYLQMNSLKPEDTAVYYCAARGLGYTDLRSVHMYYWGQGTQVTVSS”, the “polyreactivity (PSR sort gate)” value is reported as “high polyreactivity”.

Regarding “QVQLVESGGGLVQAGGSLRLSCAASGIFTYTMGWYRQAPGKERELVAAITNGSTYYADSVKGRFTISRDNAKNTVYLQMNSLKPEDTAVYYCAADRSSAYRWRSAGYYKYDYWGQGTQVTVSS”, the “polyreactivity (PSR sort gate)” value is on record as “low polyreactivity”.

Regarding “QVQLVESGGGLVQAGGSLRLSCAASGIFVSDAMGWYSQAPGKVRELVAAIRYSGDSTYYADSVKGRFTISRDNAKNTVYLQMNSLKPEDTAVYYCAATKGWTRYEYWGQGTQVTVSS”, the “polyreactivity (PSR sort gate)” value is given as “low polyreactivity”.

For the sequence “QVQLVESGGGLVQAGGSLRLSCAASGIFVSYAMGWYRQAPGKERELVAAISWNGGSTYYADSVKGRFTISRDNAKNTVYLQMNSLKPEDTAVYDCAARAYFSYRGYVTDYDYWGQGTQVTVSS”, the “polyreactivity (PSR sort gate)” value is “high polyreactivity”.

Regarding “QVQLVESGGGLVQAGGSLRLSCAASGIFVYYAMGWYRQSPGKERELVAAISSSGGSTYYADSVKGRFTISRDNAKNTVYLQMNSLKREDTAVYYCNTLAYPSDRFEYWGQGTQVTVSS”, the “polyreactivity (PSR sort gate)” value is “high polyreactivity”.

On to “QVQLVESGGGLVQAGGSLRLSCAASGIIFAHYAMGWYRQAPGKERELVAAISRGGSSTYYADSVKGRFTISRDNAKNTVYLQMNSLKPEDTAVDYCAAYGPKVIGPKTSYSSSRYDYWGQGTQVTVSS”, for which the “polyreactivity (PSR sort gate)” value is reported as “high polyreactivity”.

Turning to “QVQLVESGGGLVQAGGSLRLSCAASGIIFAPYAMGWYRHPPGKERELVAAITDSGGSTYYADSVKGRFTISRDNSKNTVYLQMKSLKPEDTAVYYCAVDSNPPDWWAVIYGYWGQGTQVTVSS”, the “polyreactivity (PSR sort gate)” value was “low polyreactivity”.

In the case of “QVQLVESGGGLVQAGGSLRLSCAASGIIFARNAMGWYRQAPGKERELVAAISSRSGSTYYADSVKGRFTISRDNAKNTVYVQMNSLKPEDTAVYYCNAVYAGRFGSHYWGQGTQVTVSS”, the “polyreactivity (PSR sort gate)” value was “high polyreactivity”.

As for “QVQLVESGGGLVQAGGSLRLSCAASGIIFARYAMGWYRQAPGKERELVASINWTGGNTYADSVKGRFTISRDNAKNTVYLQMNSLKPEDTAVYYCARDFSPGSSDPKASISFDHWGQGTQVTVSS”, the “polyreactivity (PSR sort gate)” value is on record as “low polyreactivity”.
